{"source": "patent US20120316071A1", "about": "(published 2012)", "binders": {"B1": {"name": "Fab VH1-46_IGHD6-6*01_IGHJ1*01 S102A/S103P/S104F/H111F I50A & L6_IGKJ1*01 (Fab, V domains shown)", "VH": "QVQLVQSGAEVKKPGASVKVSCKASGYTFTSYYMHWVRQAPGQGLEWMGAINPSGGSTSYAQKFQGRVTMTRDTSTSTVYMELSSLRSEDTAVYYCAREEYAPFSAEYFQFWGQGTLVTVSS", "VL": "not shown", "notes": "Fab (CH1 with His6/Flag tags from Plasmid A, kappa CL from Plasmid C); also called APFF I50A"}, "B2": {"name": "Fab VH1-46_IGHD6-6*01_IGHJ1*01 S102A/S103P/S104F/H111F (APFF) & L6_IGKJ1*01 S28G (Fab, V domains shown)", "VH": "QVQLVQSGAEVKKPGASVKVSCKASGYTFTSYYMHWVRQAPGQGLEWMGIINPSGGSTSYAQKFQGRVTMTRDTSTSTVYMELSSLRSEDTAVYYCAREEYAPFSAEYFQFWGQGTLVTVSS", "VL": "EIVLTQSPATLSLSPGERATLSCRASQGVSSYLAWYQQKPGQAPRLLIYDASNRATGIPARFSGSGSGTDFTLTISSLEPEDFAVYYCQQRSNWPPWTFGQGTKVEIKR", "notes": "Fab made in E. coli; the variable domains were cloned into Plasmid A (CH1, His and Flag tags) and Plasmid C (kappa CL); also called APFF / S28G"}, "B3": {"name": "Fab VH1-46_IGHD6-6*01_IGHJ1*01 S102A/S103P/S104F/H111F I51A & L6_IGKJ1*01 (Fab, V domains shown)", "VH": "QVQLVQSGAEVKKPGASVKVSCKASGYTFTSYYMHWVRQAPGQGLEWMGIANPSGGSTSYAQKFQGRVTMTRDTSTSTVYMELSSLRSEDTAVYYCAREEYAPFSAEYFQFWGQGTLVTVSS", "VL": "not shown", "notes": "Fab (CH1 with His6/Flag tags from Plasmid A, kappa CL from Plasmid C); also called APFF I51A"}, "B4": {"name": "Fab VH1-46_IGHD6-6*01_IGHJ1*01 S102A/S103P/S104F/H111F N52A & L6_IGKJ1*01 (Fab, V domains shown)", "VH": "QVQLVQSGAEVKKPGASVKVSCKASGYTFTSYYMHWVRQAPGQGLEWMGIIAPSGGSTSYAQKFQGRVTMTRDTSTSTVYMELSSLRSEDTAVYYCAREEYAPFSAEYFQFWGQGTLVTVSS", "VL": "not shown", "notes": "Fab (CH1 with His6/Flag tags from Plasmid A, kappa CL from Plasmid C); also called APFF N52A"}, "B5": {"name": "Fab VH1-46_IGHD6-6*01_IGHJ1*01 S102A/S103P/S104F/H111F S57A & L6_IGKJ1*01 (Fab, V domains shown)", "VH": "QVQLVQSGAEVKKPGASVKVSCKASGYTFTSYYMHWVRQAPGQGLEWMGIINPSGGATSYAQKFQGRVTMTRDTSTSTVYMELSSLRSEDTAVYYCAREEYAPFSAEYFQFWGQGTLVTVSS", "VL": "not shown", "notes": "Fab (CH1 with His6/Flag tags from Plasmid A, kappa CL from Plasmid C); also called APFF S57A"}}, "key": {"[1]": {"molecular_target": "T1, rHuman Notch-1/Fc Chimera, CF (R&D Systems Cat#3647-TK) (human, UniProt P46531 19-526)", "T1 construct": "Bought recombinant Fc chimera; Fc part of the bought chimera not given", "assay": "ECL multispot (MSD) assay, antigen spotted on plate, 10 nM Fab;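 further: bound Fab detected with a TAG-labelled detection antibody (1 h, 20 °C), electrochemiluminescence read and compared with each well's blank, signal/blank of 4 or above scored as hit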"}, "[2]": {"molecular_target": "T2, rHuman HGF R/c-MET/Fc Chimera, CF (R&D Systems Cat#358-MT/CF) (human, UniProt P08581 25-932)", "T2 construct": "Bought recombinant Fc chimera; also called HGF R/Fc; hepatocyte growth factor receptor; Fc part of the bought chimera not given", "T2 sequence (P08581 25-932, change not shown)": "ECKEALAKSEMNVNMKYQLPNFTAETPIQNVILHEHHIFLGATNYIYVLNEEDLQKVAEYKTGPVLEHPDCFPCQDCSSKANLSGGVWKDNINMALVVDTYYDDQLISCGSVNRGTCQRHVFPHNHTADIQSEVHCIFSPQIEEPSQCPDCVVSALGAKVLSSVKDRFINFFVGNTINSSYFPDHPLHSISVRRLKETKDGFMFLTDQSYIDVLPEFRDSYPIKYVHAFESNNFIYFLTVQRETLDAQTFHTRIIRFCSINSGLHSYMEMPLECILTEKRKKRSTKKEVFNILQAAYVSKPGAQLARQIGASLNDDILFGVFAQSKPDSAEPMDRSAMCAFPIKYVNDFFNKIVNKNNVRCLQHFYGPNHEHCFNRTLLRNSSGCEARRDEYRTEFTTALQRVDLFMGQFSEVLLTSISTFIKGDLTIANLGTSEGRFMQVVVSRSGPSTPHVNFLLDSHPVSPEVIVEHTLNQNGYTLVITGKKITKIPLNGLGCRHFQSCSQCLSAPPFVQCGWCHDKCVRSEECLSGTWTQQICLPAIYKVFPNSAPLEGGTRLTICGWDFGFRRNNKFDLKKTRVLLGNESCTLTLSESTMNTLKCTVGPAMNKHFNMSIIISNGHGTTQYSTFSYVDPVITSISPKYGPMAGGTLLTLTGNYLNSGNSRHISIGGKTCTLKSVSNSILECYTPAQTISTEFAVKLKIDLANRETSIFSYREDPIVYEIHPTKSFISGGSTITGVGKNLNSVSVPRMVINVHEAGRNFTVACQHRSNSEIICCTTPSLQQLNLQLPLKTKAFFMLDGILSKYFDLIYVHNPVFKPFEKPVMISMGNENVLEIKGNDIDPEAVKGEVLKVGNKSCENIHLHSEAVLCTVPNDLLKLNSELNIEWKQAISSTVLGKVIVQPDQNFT", "assay": "ECL multispot (MSD) assay, antigen spotted on plate, 10 nM Fab"}, "[3]": {"molecular_target": "T3, rHuman Erythropoietin R/Fc Chimera, CF (R&D Systems Cat#963-ER) (human, UniProt P19235 25-250)", "T3 construct": "Bought recombinant Fc chimera; also called EPO R; EPO R/Fc; Fc part of the bought chimera not given", "T3 sequence (looked up)": "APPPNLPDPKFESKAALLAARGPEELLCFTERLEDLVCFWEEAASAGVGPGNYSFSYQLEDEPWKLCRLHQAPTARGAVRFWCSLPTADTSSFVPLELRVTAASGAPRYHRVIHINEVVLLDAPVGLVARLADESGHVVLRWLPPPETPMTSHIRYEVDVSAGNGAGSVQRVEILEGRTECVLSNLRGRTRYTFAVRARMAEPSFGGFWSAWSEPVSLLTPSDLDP", "assay": "ECL multispot (MSD) assay, antigen spotted on plate, 10 nM Fab"}, "[4]": {"molecular_target": "T4, rHuman CD44/Fc Chimera, CF (R&D Systems Cat#3660-CD) (human, UniProt P16070 21-220)", "T4 construct": "Bought recombinant Fc chimera; Fc part of the bought chimera not given", "assay": "ECL multispot (MSD) assay, antigen spotted on plate, 10 nM Fab"}, "[5]": {"molecular_target": "T5, rHuman EGF R/Fc Chimera, CF (R&D Systems Cat#344-ER) (human, UniProt P00533 25-645)", "T5 construct": "Bought recombinant Fc chimera; also called epidermal growth factor receptor; Fc part of the bought chimera not given", "assay": "ECL multispot (MSD) assay, antigen spotted on plate, 10 nM Fab"}, "[6]": {"molecular_target": "T6, rHuman IGF-1 sR, CF (R&D Systems Cat#391-GR) (human, UniProt P08069 31-932)", "T6 construct": "Bought soluble receptor; also called insulin-like growth factor-1 soluble receptor", "assay": "ECL multispot (MSD) assay, antigen spotted on plate, 10 nM Fab"}, "[7]": {"molecular_target": "T7, rHuman P-Cadherin/Fc Chimera, CF (R&D Systems Cat#861-PC) (human, UniProt P22223 108-654)", "T7 construct": "Bought recombinant Fc chimera; Fc part of the bought chimera not given", "assay": "ECL multispot (MSD) assay, antigen spotted on plate, 10 nM Fab"}, "[8]": {"molecular_target": "T8, rHuman ErbB2/Fc Chimera, CF (R&D Systems Cat#1129-ER) (human, UniProt P04626 23-652)", "T8 construct": "Bought recombinant Fc chimera; also called human epidermal growth factor 2 receptor; Fc part of the bought chimera not given", "assay": "ECL multispot (MSD) assay, antigen spotted on plate, 10 nM Fab"}, "[9]": {"molecular_target": "T9, Recombinant Human DLL4 (R&D Systems Cat#1506-D4/CF) (human, UniProt Q9NR61 27-524)", "T9 construct": "Bought recombinant protein; also called delta-like protein 4; rHuman DLL4", "assay": "ECL multispot (MSD) assay, antigen spotted on plate, 10 nM Fab"}, "[10]": {"molecular_target": "T10, rHuman CD44/Fc Chimera, CF (human, UniProt P16070 21-220)", "T10 construct": "Bought from R&D Systems; not shown: Fc of the bought chimera", "assay": "ECL Multispot (MSD) assay; antigen spotted on plate, Fab in solution;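 further: fab bound 1 h at 20 °C, detected by TAG-labelled antibody electrochemiluminescence, signal relative to each well's blank, ratio of 4 or more marks a hit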"}, "[11]": {"molecular_target": "T11, rHuman Notch-1/Fc Chimera, CF (human, UniProt P46531 19-526)", "T11 construct": "Bought from R&D Systems; not shown: Fc of the bought chimera", "assay": "ECL Multispot (MSD) assay; antigen spotted on plate, Fab in solution"}, "[12]": {"molecular_target": "T12, rHuman Erythropoietin R/Fc Chimera, CF (human, UniProt P19235 25-250)", "T12 construct": "Bought from R&D Systems; also called EPO R; EPO R/Fc; not shown: Fc of the bought chimera", "T12 sequence (looked up)": "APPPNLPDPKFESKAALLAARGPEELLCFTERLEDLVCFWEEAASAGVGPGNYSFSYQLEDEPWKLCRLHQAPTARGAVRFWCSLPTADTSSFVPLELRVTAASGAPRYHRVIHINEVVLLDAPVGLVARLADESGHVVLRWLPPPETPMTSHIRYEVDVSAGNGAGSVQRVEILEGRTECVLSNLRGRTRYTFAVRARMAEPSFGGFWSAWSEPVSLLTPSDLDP", "assay": "ECL Multispot (MSD) assay; antigen spotted on plate, Fab in solution"}, "[13]": {"molecular_target": "T13, rHuman ErbB2/Fc Chimera, CF (human, UniProt P04626 23-652)", "T13 construct": "Bought from R&D Systems; also called human epidermal growth factor 2 receptor; not shown: Fc of the bought chimera", "assay": "ECL Multispot (MSD) assay; antigen spotted on plate, Fab in solution"}, "[14]": {"molecular_target": "T14, rHuman IGF-1 sR, (IGF-1 sR), CF (human, UniProt P08069 31-932)", "T14 construct": "Bought from R&D Systems; also called insulin-like growth factor-1 soluble receptor", "assay": "ECL Multispot (MSD) assay; antigen spotted on plate, Fab in solution"}, "[15]": {"molecular_target": "T15, rHuman HGF R/c-MET/Fc Chimera, CF (human, UniProt P08581 25-932)", "T15 construct": "Bought from R&D Systems; also called HGF R/Fc; hepatocyte growth factor receptor; not shown: Fc of the bought chimera", "T15 sequence (P08581 25-932, change not shown)": "as the sequence (P08581 25-932, change not shown) above", "assay": "ECL Multispot (MSD) assay; antigen spotted on plate, Fab in solution"}, "[16]": {"molecular_target": "T16, Recombinant Human DLL4 (human, UniProt Q9NR61 27-524)", "T16 construct": "Bought from R&D Systems; also called delta-like protein 4; rHuman DLL4", "assay": "ECL Multispot (MSD) assay; antigen spotted on plate, Fab in solution"}, "[17]": {"molecular_target": "T17, rHuman P-Cadherin/Fc Chimera, CF (human, UniProt P22223 108-654)", "T17 construct": "Bought from R&D Systems; not shown: Fc of the bought chimera", "assay": "ECL Multispot (MSD) assay; antigen spotted on plate, Fab in solution"}, "[18]": {"molecular_target": "T18, rHuman EGF R/Fc Chimera, CF (human, UniProt P00533 25-645)", "T18 construct": "Bought from R&D Systems; also called epidermal growth factor receptor; not shown: Fc of the bought chimera", "assay": "ECL Multispot (MSD) assay; antigen spotted on plate, Fab in solution"}}}
{"binder": "B1", "values": [{"measurement": "ECL signal", "setting": "[1]", "value": 297}, {"measurement": "ECL signal", "setting": "[2]", "value": 301}, {"measurement": "ECL signal", "setting": "[3]", "value": 252}, {"measurement": "ECL signal", "setting": "[4]", "value": 326}, {"measurement": "ECL signal", "setting": "[5]", "value": 402}, {"measurement": "ECL signal", "setting": "[6]", "value": 247}, {"measurement": "ECL signal", "setting": "[7]", "value": 313}, {"measurement": "ECL signal", "setting": "[8]", "value": 369}, {"measurement": "ECL signal", "setting": "[9]", "value": 2670}]}
{"binder": "B2", "values": [{"measurement": "ECL signal", "setting": "[10]", "value": 436}, {"measurement": "ECL signal", "setting": "[11]", "value": 324}, {"measurement": "ECL signal", "setting": "[12]", "value": 494}, {"measurement": "ECL signal", "setting": "[13]", "value": 334}, {"measurement": "ECL signal", "setting": "[14]", "value": 360}, {"measurement": "ECL signal", "setting": "[15]", "value": 333}, {"measurement": "ECL signal", "setting": "[16]", "value": 183000}, {"measurement": "ECL signal", "setting": "[17]", "value": 491}, {"measurement": "ECL signal", "setting": "[18]", "value": 360}]}
{"binder": "B3", "values": [{"measurement": "ECL signal", "setting": "[1]", "value": 312}, {"measurement": "ECL signal", "setting": "[2]", "value": 440}, {"measurement": "ECL signal", "setting": "[3]", "value": 380}, {"measurement": "ECL signal", "setting": "[4]", "value": 391}, {"measurement": "ECL signal", "setting": "[5]", "value": 373}, {"measurement": "ECL signal", "setting": "[6]", "value": 383}, {"measurement": "ECL signal", "setting": "[7]", "value": 144}, {"measurement": "ECL signal", "setting": "[8]", "value": 344}, {"measurement": "ECL signal", "setting": "[9]", "value": 159000}]}
{"binder": "B4", "values": [{"measurement": "ECL signal", "setting": "[1]", "value": 383}, {"measurement": "ECL signal", "setting": "[2]", "value": 369}, {"measurement": "ECL signal", "setting": "[3]", "value": 468}, {"measurement": "ECL signal", "setting": "[4]", "value": 362}, {"measurement": "ECL signal", "setting": "[5]", "value": 340}, {"measurement": "ECL signal", "setting": "[6]", "value": 362}, {"measurement": "ECL signal", "setting": "[7]", "value": 353}, {"measurement": "ECL signal", "setting": "[8]", "value": 378}, {"measurement": "ECL signal", "setting": "[9]", "value": 169000}]}
{"binder": "B5", "values": [{"measurement": "ECL signal", "setting": "[1]", "value": 365}, {"measurement": "ECL signal", "setting": "[2]", "value": 388}, {"measurement": "ECL signal", "setting": "[3]", "value": 477}, {"measurement": "ECL signal", "setting": "[4]", "value": 439}, {"measurement": "ECL signal", "setting": "[5]", "value": 302}, {"measurement": "ECL signal", "setting": "[6]", "value": 417}, {"measurement": "ECL signal", "setting": "[7]", "value": 232}, {"measurement": "ECL signal", "setting": "[8]", "value": 304}, {"measurement": "ECL signal", "setting": "[9]", "value": 112000}]}
